Our source for the binding result, Kd and EC50 values is EP3443010B1 (Ose Immunotherapeutics, dated 2024).

Residue numbers refer to the chain shown, from its start. Where “and” joins values, the source holds several entries; their conditions need not be identical. Equal entries are not always repeated.

Assay [1] has as its target T1, Recombinant hSIRPb-His (Antibodies-online, reference ABIN3077231) (human, UniProt Q5TFQ8 30-371).
T1 construct: also called human SIRPb recombinant protein (Blitz); not shown: His tag (histidine tail)
Put plainly: Blitz (BLI), SIRPb-His on Ni-NTA biosensor, antibody at 20 ug/mL.

The target in assay [2] is T2, Recombinant hSIRPg-His (Sino Biologicals, reference 11828-H08H) (human, UniProt Q9P1W8 29-360).
T2 construct: also called human SIRPg recombinant protein; not shown: His tag (histidine tail)
T2 sequence (Q9P1W8 29-360 limits assumed): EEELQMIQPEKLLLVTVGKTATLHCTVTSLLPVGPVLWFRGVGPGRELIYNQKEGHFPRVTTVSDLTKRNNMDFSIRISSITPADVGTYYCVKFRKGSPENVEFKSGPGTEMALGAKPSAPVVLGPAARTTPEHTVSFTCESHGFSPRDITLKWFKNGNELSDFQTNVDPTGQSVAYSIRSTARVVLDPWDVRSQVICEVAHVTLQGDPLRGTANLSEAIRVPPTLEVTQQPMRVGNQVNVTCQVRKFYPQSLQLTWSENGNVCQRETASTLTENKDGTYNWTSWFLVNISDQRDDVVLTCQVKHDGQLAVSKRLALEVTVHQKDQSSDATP
Put plainly: Blitz (BLI), SIRPg-His on Ni-NTA biosensor, antibody at 20 ug/mL.

Assay [3] has as its target T3, SIRPg on peripheral human CD3+ T cells (human, UniProt Q9P1W8 29-387).
T3 construct: whole, on cells; also called T cells that are known to express SIRPγ; human T cells
In words: flow cytometry on human CD3+ T cells, percent positive cells. (Flow cytometry measures light scatter and fluorescence of single cells or particles in a stream.)

The target of assay [4] is T4, recombinant hSIRPa (Sino Biologicals, reference 10975-H08H) (human, UniProt P78324 31-370).
T4 construct: A different catalogue item from m21; also called SIRPa-His (ELISA with the mouse antibodies)
T4 sequence (P78324 other isoform, or with tags, fused parts or gaps H08H H08H): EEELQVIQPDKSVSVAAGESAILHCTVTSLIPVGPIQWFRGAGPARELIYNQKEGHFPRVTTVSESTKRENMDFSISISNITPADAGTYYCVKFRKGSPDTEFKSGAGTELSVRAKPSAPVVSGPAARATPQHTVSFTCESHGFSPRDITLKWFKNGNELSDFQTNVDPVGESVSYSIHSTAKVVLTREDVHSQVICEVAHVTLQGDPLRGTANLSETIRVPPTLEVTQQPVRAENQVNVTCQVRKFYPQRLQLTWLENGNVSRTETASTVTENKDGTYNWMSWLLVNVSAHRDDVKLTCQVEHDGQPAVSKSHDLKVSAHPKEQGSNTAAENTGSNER
Put plainly: ELISA, hSIRPa (Sino 10975-H08H) coated at 0.5 ug/ml, anti-mouse Fc detection.

T1 sequence (Q5TFQ8 30-371): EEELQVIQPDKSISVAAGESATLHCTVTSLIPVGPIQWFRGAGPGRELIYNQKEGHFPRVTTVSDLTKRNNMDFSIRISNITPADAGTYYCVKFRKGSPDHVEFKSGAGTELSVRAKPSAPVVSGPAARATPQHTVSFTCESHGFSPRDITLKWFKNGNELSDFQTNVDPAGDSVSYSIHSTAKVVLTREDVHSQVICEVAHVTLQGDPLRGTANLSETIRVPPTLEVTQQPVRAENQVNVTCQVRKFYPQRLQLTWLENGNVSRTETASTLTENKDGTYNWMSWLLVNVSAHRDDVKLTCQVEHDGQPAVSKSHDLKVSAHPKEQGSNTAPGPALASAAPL
T3 sequence (Q9P1W8 29-387): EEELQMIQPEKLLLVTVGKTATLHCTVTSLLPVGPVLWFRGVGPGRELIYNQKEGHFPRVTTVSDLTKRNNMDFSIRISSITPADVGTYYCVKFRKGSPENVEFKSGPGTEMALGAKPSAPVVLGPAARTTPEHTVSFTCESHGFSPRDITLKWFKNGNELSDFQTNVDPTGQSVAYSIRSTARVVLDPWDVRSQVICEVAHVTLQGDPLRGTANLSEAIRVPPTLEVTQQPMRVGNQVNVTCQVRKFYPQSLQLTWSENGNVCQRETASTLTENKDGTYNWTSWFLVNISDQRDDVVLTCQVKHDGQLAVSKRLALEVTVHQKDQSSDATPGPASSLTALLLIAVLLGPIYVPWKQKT

B1: HFLA (antibody, human IgG4 S228P, kappa, V domains shown)
VH: EVQLVQSGAEVKKPGESLRISCKASGYSFTSYWVHWVRQMPGKGLEWMGNIDPSDSDTHYSPSFQGHVTLSVDKSISTAYLQLSSLKASDTAMYYCVRGGTGTMAYFAYWGQGTLVTVSS
VL: DVVMTQSPLSLPVTLGQPASISCRSSQSLVHSYGNTYLYWYQQRPGQSPRLLIYRVSNRFSGVPDRFSGSGSGTDFTLKISRVEAEDVGVYFCFQGTHVPYTFGGGTKVEIKR
notes: also called humanized 18D5 variant HFLA
Turning to B1, in assay [1], the binding result was “binds”.

B2: HFLB (antibody, human IgG4 S228P, kappa, V domains shown)
VH: B1 VH
VL: B1 VL with Y41F, F92Y
notes: also called humanized 18D5 variant HFLB
For the molecule B2, the Kd (as a rule, the equilibrium constant for the complex coming apart) in assay [2] was 104 nM. Also, the binding result in assay [1] is “binds”.

B3: HEFLB (antibody, human IgG4 S228P, kappa, V domains shown)
VH: B1 VH with M104L
VL: B1 VL with Y41F, F92Y
notes: also called humanized 18D5 variant HEFLB; anti-SIRPa HEFLB
Turning to B3, the binding result in assay [1] is given as “binds”.

B4: HEFLA (antibody, human IgG4 S228P, kappa, V domains shown)
VH: B1 VH with M104L
VL: B1 VL
notes: also called humanized 18D5 variant HEFLA
With B4, in assay [1], the binding result is “binds”.

B5: chimeric mouse/human 18D5 antibody (antibody, human IgG4 S228P, kappa)
heavy: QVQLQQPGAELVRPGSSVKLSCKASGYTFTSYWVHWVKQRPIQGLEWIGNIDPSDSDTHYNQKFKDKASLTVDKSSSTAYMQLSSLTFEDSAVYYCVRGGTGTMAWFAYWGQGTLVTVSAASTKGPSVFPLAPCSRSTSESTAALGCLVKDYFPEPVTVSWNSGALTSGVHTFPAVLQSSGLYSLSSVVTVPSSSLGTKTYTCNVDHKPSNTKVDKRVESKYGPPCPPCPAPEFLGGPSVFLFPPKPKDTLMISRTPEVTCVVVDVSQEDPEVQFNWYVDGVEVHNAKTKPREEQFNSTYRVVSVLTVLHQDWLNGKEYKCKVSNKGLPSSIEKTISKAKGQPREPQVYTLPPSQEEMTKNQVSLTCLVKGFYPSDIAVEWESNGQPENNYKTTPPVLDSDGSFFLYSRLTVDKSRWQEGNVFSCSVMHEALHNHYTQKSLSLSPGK
light: DVVMTQTPLSLPVSLGDQASISCRSSQSLVHSYGNTYLYWYLQKPGQSPKLLIYRVSNRFSGVPDRFSGSGSGTDFTLKISRVEAEDLGVYFCFQGTHVPYTFGSGTKLEIKRTVAAPSVFIFPPSDEQLKSGTASVVCLLNNFYPREAKVQWKVDNALQSGNSQESVTEQDSKDSTYSLSSTLTLSKADYEKHKVYACEVTHQGLSSPVTKSFNRGEC
notes: also called chimeric 18D5; the chimeric antibody
For the molecule B5, the binding result in assay [3] is “no binding (tested: 10 micrograms/ml)”; in assay [1], “binds”.

B6: mouse antibody 18D5 (antibody, mouse IgG2b, kappa)
heavy: QVQLQQPGAELVRPGSSVKLSCKASGYTFTSYWVHWVKQRPIQGLEWIGNIDPSDSDTHYNQKFKDKASLTVDKSSSTAYMQLSSLTFEDSAVYYCVRGGTGTMAWFAYWGQGTLVTVSAAKTTPPSVYPLAPGCGDTTGSSVTLGCLVKGYFPESVTVTWNSGSLSSSVHTFPALLQSGLYTMSSSVTVPSSTWPSQTVTCSVAHPASSTTVDKKLEPSGPISTINPCPPCKECHKCPAPNLEGGPSVFIFPPNIKDVLMISLTPKVTCVVVDVSEDDPDVQISWFVNNVEVHTAQTQTHREDYNSTIRVVSTLPIQHQDWMSGKEFKCKVNNKDLPSPIERTISKIKGLVRAPQVYILPPPAEQLSRKDVSLTCLVVGFNPGDISVEWTSNGHTEENYKDTAPVLDSDGSYFIYSKLNMKTSKWEKTDSFSCNVRHEGLKNYYLKKTISRSPGK
light: DVVMTQTPLSLPVSLGDQASISCRSSQSLVHSYGNTYLYWYLQKPGQSPKLLIYRVSNRFSGVPDRFSGSGSGTDFTLKISRVEAEDLGVYFCFQGTHVPYTFGSGTKLEIKRADAAPTVSIFPPSSEQLTSGGASVVCFLNNFYPKDINVKWKIDGSERQNGVLNSWTDQDSKDSTYSMSSTLTLTKDEYERHNSYTCEATHKTSTSPIVKSFNRNEC
notes: also called m18D5; m18D5 clone
B6: in assay [4], the EC50 – broadly, the concentration that produces a half-maximal response – was 0.06 nM and 0.009 µg/mL.
